B1: CPEB3 Ribozyme (parent)
chain: GGGGGCCACAGCAGAAGCGUUCACGUCGCGGCCCCUGUCAGAUUCUGGUGAAUCUGCGAAUUCUGCUGU

Variants of: B1
Experiment: self-cleavage, relative activity (ratio to wild type); higher = more cleavage; co-transcriptional

Compared with GGGGGCCACAGCAGAAGCGUUCACGUCGCGGCCCCUGUCAGAUUCUGUUUAAUCUGCGAAUUCUGCUGU, GGGGGCCACAGCAGAAGCGUUCACGUCGCGGCCCCUGUCAGAUUCUGUUAAAUCUGCGAAUUCUGCUGU is higher in self-cleavage: 0.99 for the first, 1.03 for the second.

Compared with GGGGGCCACAGCAGAAGCGUUCACGUCGCGGCCCCUGUCAGAUUCUGUUCAAUCUGCGAAUUCUGCUGU, GGGGGCCACAGCAGAAGCGUUCACGUCGCGGCCCCUGUCAGAUUCUGUUGAAUCUGCAAAUUCUGCUGU is lower in self-cleavage: 1.01 for the first, 0.963 for the second.

Compared with GGGGGCCACAGCAGAAGCGUUCACGUCGCGGCCCCUGUCAGAUUCUGUUGAAUCUGCUAAUUCUGCUGU, GGGGGCCACAGCAGAAGCGUUCACGUCGCGGCCCCUGUCAGAUUCUGUUGAAUCUGCGAAUUCUGCUAU is higher in self-cleavage: 0.999 for the first, 1.04 for the second.

Going from GGGGGCCACAGCAGAAGCGUUCACGUCGCGGCCCCUGUCAGAUUCUGUUGAAUCUGCGAAUUCUGCUCU to GGGGGCCACAGCAGAAGCGUUCACGUCGCGGCCCCUGUCAGAUUCUGUUGAAUCUGCGAAUUCUGCUUU, the self-cleavage falls from 1.05 to 1.04.

First: GGGGGCCACAGCAGAAGCGUUCACGUCGCGGCCCCUGUCAGAUUCUGGAGAAUCUGCGAAUUCUGAUGU
Second: GGGGGCCACAGCAGAAGCGUUCACGUCGCGGCCCCUGUCAGAUUCUGGAGAAUCUGCGAAUUCUGGUGU
The self-cleavage of the first is lower: 0.911 for the first, 0.96 for the second.

First: GGGGGCCACAGCAGAAGCGUUCACGUCGCGGCCCCUGUCAGAUUCUGGAGAAUCAGCGAAUUCUGCUGU
Second: GGGGGCCACAGCAGAAGCGUUCACGUCGCGGCCCCUGUCAGAUUCUGGAGAGUCUGCGAAUUCUGCUGU
The self-cleavage of the first is lower: 0.968 for the first, 0.979 for the second.

First: GGGGGCCACAGCAGAAGCGUUCACGUCGCGGCCCCUGUCAGAUUCUGGCGAUUCUGCGAAUUCUGCUGU
Second: GGGGGCCACAGCAGAAGCGUUCACGUCGCGGCCCCUGUCAGAUUCUGGCGAGUCUGCGAAUUCUGCUGU
The self-cleavage of the first is lower: 0.93 for the first, 0.972 for the second.

First: GGGGGCCACAGCAGAAGCGUUCACGUCGCGGCCCCUGUCAGAUUCUGGCGACUCUGCGAAUUCUGCUGU
Second: GGGGGCCACAGCAGAAGCGUUCACGUCGCGGCCCCUGUCAGAUUCUGUUGAAUCUGCGAAUCCUGCUGU
The self-cleavage of the first is higher: 1.03 for the first, 0.929 for the second.

Compared with GGGGGCCACAGCAGAAGCGUUCACGUCGCGGCCCCUGUCAGAUUCUGGAGAAUGUGCGAAUUCUGCUGU, GGGGGCCACAGCAGAAGCGUUCACGUCGCGGCCCCUGUCAGAUUCUGGAGAAUAUGCGAAUUCUGCUGU is lower in self-cleavage: 0.947 for the first, 0.641 for the second.

Going from GGGGGCCACAGCAGAAGCGUUCACGUCGCGGCCCCUGUCAGAUUCUGGAGAAUUUGCGAAUUCUGCUGU to GGGGGCCACAGCAGAAGCGUUCACGUCGCGGCCCCUGUCAGAUUCUGGAGUAUCUGCGAAUUCUGCUGU, the self-cleavage rises from 0.995 to 1.

First: GGGGGCCACAGCAGAAGCGUUCACGUCGCGGCCCCUGUCAGAUUCUGUUGAAUCUGCGAAAUCUGCUGU
Second: GGGGGCCACAGCAGAAGCGUUCACGUCGCGGCCCCUGUCAGAUUCUGUUGAAUCUGCGAACUCUGCUGU
The self-cleavage of the first is higher: 0.924 for the first, 0.905 for the second.

Compared with GGGGGCCACAGCAGAAGCGUUCACGUCGCGGCCCCUGUCAGAUUCUGGAGAAUCUGCGAAUUCUGCUGG, GGGGGCCACAGCAGAAGCGUUCACGUCGCGGCCCCUGUCAGAUUCUGGAGAAUCUACGAAUUCUGCUGU is lower in self-cleavage: 1.06 for the first, 1 for the second.

Compared with GGGGGCCACAGCAGAAGCGUUCACGUCGCGGCCCCUGUCAGAUUCUGGAGAAUCUUCGAAUUCUGCUGU, GGGGGCCACAGCAGAAGCGUUCACGUCGCGGCCCCUGUCAGAUUCUGUAGAAUCUGCGAAUUCUGCUGU is higher in self-cleavage: 0.991 for the first, 1.02 for the second.

First: GGGGGCCACAGCAGAAGCGUUCACGUCGCGGCCCCUGUCAGAUUCUGUGGAAUCUGCGAAUUCUGCUGU
Second: GGGGGCCACAGCAGAAGCGUUCACGUCGCGGCCCCUGUCAGAUUCUGUCGAAUCUGCGAAUUCUGCUGU
The self-cleavage of the first is higher: 1.01 for the first, 0.981 for the second.

Going from GGGGGCCACAGCAGAAGCGUUCACGUCGCGGCCCCUGUCAGAUUCUGGAGAAUCUGCGAAUUCGGCUGU to GGGGGCCACAGCAGAAGCGUUCACGUCGCGGCCCCUGUCAGAUUCUGGAGAAUCUGCGAAUUCCGCUGU, the self-cleavage rises from 0.835 to 0.919.

Compared with GGGGGCCACAGCAGAAGCGUUCACGUCGCGGCCCCUGUCAGAUUCUGGAGAAUCUGCUAAUUCUGCUGU, GGGGGCCACAGCAGAAGCGUUCACGUCGCGGCCCCUGUCAGAUUCUGGAGAAUCUGCCAAUUCUGCUGU is higher in self-cleavage: 0.972 for the first, 1.02 for the second.

First: GGGGGCCACAGCAGAAGCGUUCACGUCGCGGCCCCUGUCAGAUUCUGGAGAAUCUGCGAAGUCUGCUGU
Second: GGGGGCCACAGCAGAAGCGUUCACGUCGCGGCCCCUGUCAGAUUCUGGAGAAUCUGCGAAAUCUGCUGU
The self-cleavage of the first is lower: 0.904 for the first, 0.979 for the second.

Going from GGGGGCCACAGCAGAAGCGUUCACGUCGCGGCCCCUGUCAGAUUCUGGAGAAUCUGCGAAUUCUGCUAU to GGGGGCCACAGCAGAAGCGUUCACGUCGCGGCCCCUGUCAGAUUCUGGAGAAUCUGCGAAUUCUGCUCU, the self-cleavage falls from 1.02 to 0.994.

First: GGGGGCCACAGCAGAAGCGUUCACGUCGCGGCCCCUGUCAGAUUCUGGAGAAUCUGAGAAUUCUGCUGU
Second: GGGGGCCACAGCAGAAGCGUUCACGUCGCGGCCCCUGUCAGAUUCUGGAGAAUCUGGGAAUUCUGCUGU
The self-cleavage of the first is lower: 0.273 for the first, 0.346 for the second.

For GGGGGCCACAGCAGAAGCGUUCACGUCGCGGCCCCUGUCAGAUUCUGUUGAACCUGCGAAUUCUGCUGU, the self-cleavage was 1.04.

From the RNAGym collection of RNA variant scans (doi:10.7554/elife.80360)
